Test results reported in US20030091584A1 (AstraZeneca / MedImmune, published 2003).
“And” between values parts separate entries of the source, which are not always exact repeats. Equal entries are not always repeated.

Tests used:
[1] = target: T1, F protein of wild type RSV A/Long (respiratory syncytial virus strain …, UniProt P12568 26-574); assay: cell-based or functional assay
[2] = target: T2, RSV F glycoprotein (NUF4) (respiratory syncytial virus); assay: BIAcore, mAb vs NUF4 (2:1)
T2 chain 1: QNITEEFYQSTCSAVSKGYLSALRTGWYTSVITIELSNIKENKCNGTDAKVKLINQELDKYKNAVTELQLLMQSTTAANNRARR
T2 chain 2: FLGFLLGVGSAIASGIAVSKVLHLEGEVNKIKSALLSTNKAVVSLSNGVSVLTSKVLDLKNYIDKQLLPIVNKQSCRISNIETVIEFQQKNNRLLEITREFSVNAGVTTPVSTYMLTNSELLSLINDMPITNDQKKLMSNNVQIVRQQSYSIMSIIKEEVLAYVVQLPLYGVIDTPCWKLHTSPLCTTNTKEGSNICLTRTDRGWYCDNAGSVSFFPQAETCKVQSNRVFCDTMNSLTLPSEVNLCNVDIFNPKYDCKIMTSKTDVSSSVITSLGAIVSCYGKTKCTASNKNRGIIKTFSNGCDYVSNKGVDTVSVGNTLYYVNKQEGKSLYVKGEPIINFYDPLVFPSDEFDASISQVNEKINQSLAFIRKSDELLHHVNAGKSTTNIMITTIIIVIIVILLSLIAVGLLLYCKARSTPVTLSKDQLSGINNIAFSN

[3] = target: T2, RSV F glycoprotein (NUF4); assay: BIAcore, mAb vs NUF4 (1:1)
[4] = target: T2, RSV F glycoprotein (NUF4); assay: ITC, NUF4 titrated into antibody, 35 °C
[5] = target: T2, RSV F glycoprotein (NUF4); assay: ITC, NUF4 titrated into antibody, 35 °C (1/Kb)
[6] = target: T2, RSV F glycoprotein (NUF4); assay: ITC, NUF4 titrated into antibody
[7] = target: T1, F protein of wild type RSV A/Long; assay: cell-based or functional assay; remark: listed apart in the source
[8] = target: RSV F protein (immobilized on the BIAcore sensor chip) (respiratory syncytial virus); assay: BIAcore, immobilized F protein;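 note: fab fragments as analytes binding F protein coupled to the chip via EDC/NHS chemistry, with blank surface signal subtracted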

B1: A17d4 (monoclonal antibody) (antibody, V domains shown)
VH: QVTLRESGPALVKPTQTLTLTCTFSGFSLSTAGMSVGWIRQPPGKALEWLADIWWDGKKSYNPSLKDRLTISKDTSKNQVVLKVTNMDPADTATYYCARDMIFNFYFDVWGQGTTVTVSS
VL: DIQMTQSPSTLSASVGDRVTITCLPSSRVGYMHWYQQKPGKAPKLLIYDTMYQASGVPSRFSGSGSGTEFTLTISSLQPDDFATYYCFQFSGYPFTFGGGTKLEIK
notes: mAb with framework and constant regions of SYNAGIS
Fold Difference (Control IC50) [1]: 15 fold
Fold Difference (Curve IC50) [1]: 13 fold
Mean IC50 (Control), RSV microneutralization [1]: 0.0354 µg/mL
Mean IC50 (Curve), RSV microneutralization [1]: 0.0342 µg/mL
Kd [2]: 1.11 nM
koff [2]: 0.000292 s⁻¹
kon [2]: 264000 M⁻¹ s⁻¹
number in parentheses after KD (fold against SYNAGIS = 1) [2]: 281 fold
Kd [3]: 0.73 nM
koff [3]: 0.000362 s⁻¹
kon [3]: 499000 M⁻¹ s⁻¹
number in parentheses after KD (fold against SYNAGIS = 1) [3]: 12 fold
Ka [4]: 7.5e+07 M⁻¹
Kd [5]: 13 nM
ΔHb (binding enthalpy) [6]: 16.3 kcal/mol

B2: A13c4 (Fab fragment) (Fab, V domains shown)
VH: QVTLRESGPALVKPTQTLTLTCTFSGFSLSTAGMSVGWIRQPPGKALEWLADIWWDGKKSYNPSLKDRLTISKDTSKNQVVLKVTNMDPADTATYYCARDMIFNFYFDVWGQGTTVTVSS
VL: DIQMTQSPSTLSASVGDRVTITCSLSSRVGYMHWYQQKPGKAPKLLIYDTMYQSSGVPSRFSGSGSGTEFTLTISSLQPDDFATYYCFQGSGYPFTFGGGTKVEIK
notes: Fab
EC50 (nM), in vitro microneutralization of RSV Long [7]: 0.52 nM
Fold Difference (Control IC50) [1]: 21 fold
Fold Difference (Curve IC50) [1]: 17 fold
Mean IC50 (Control), RSV microneutralization [1]: 0.0258 µg/mL
Mean IC50 (Curve), RSV microneutralization [1]: 0.0264 µg/mL
koff [8]: 0.00028 s⁻¹
kon [8]: 781000 M⁻¹ s⁻¹ and 735000 M⁻¹ s⁻¹

B3: A13c4 (monoclonal antibody) (antibody, V domains shown)
VH: QVTLRESGPALVKPTQTLTLTCTFSGFSLSTAGMSVGWIRQPPGKALEWLADIWWDGKKSYNPSLKDRLTISKDTSKNQVVLKVTNMDPADTATYYCARDMIFNFYFDVWGQGTTVTVSS
VL: DIQMTQSPSTLSASVGDRVTITCSLSSRVGYMHWYQQKPGKAPKLLIYDTMYQSSGVPSRFSGSGSGTEFTLTISSLQPDDFATYYCFQGSGYPFTFGGGTKVEIK
notes: as for B1
Fold Difference (Control IC50) [1]: 14 fold
Fold Difference (Curve IC50) [1]: 12 fold
Mean IC50 (Control), RSV microneutralization [1]: 0.0375 µg/mL
Mean IC50 (Curve), RSV microneutralization [1]: 0.0376 µg/mL
Kd [2]: 0.7 nM
koff [2]: 0.000225 s⁻¹
kon [2]: 320000 M⁻¹ s⁻¹
number in parentheses after KD (fold against SYNAGIS = 1) [2]: 446 fold
Kd [3]: 0.75 nM
koff [3]: 0.000272 s⁻¹
kon [3]: 365000 M⁻¹ s⁻¹
number in parentheses after KD (fold against SYNAGIS = 1) [3]: 12 fold
Ka [4]: 1.07e+08 M⁻¹
Kd [5]: 9 nM
ΔHb (binding enthalpy) [6]: 16 kcal/mol
